Among the data in a protein production outcome set (Wang et al. 2014) are protein production values, retold here.

This series in a line: label from the status in PepcDB records.
For “MNQLTQYTITEQEINQSLAKHNNFSKDIGLPGVADAHIVLTNLTSQIGREEPNKVTLTGDANLDMNSLFGSQKATMKLKLKALPVFDKEKGAIFLKEMEVVDATVQPEKMQTVMQTLLPYLNQALRNYFNQQPAYVLREDGSQGEAMAKKLAKGIEVKPGEIVIPFTDLEHHHHHH”, the protein production entry is recorded as “not failed”. On to “MHPDTTLILIAAASIVLLVLLVTRLKLHPFLALMVAAAFLGLASGLAPTDAVKTFQKGFGNILGSVGLVVGLGSMLGGLLLNTGGADRIANAFVGRGSTVWLPTSICAAALLIGMPHLFDVSFVMLVPLVFAIAKRTGSHLMRVGLPMAAGLYVSHGFLLPHPSPTLALAIYHGDAGRAILFGFLLAIPTAILSGPLLTSFAMRWFKDPIDITHSPIMTAAGRSDVTTLDNAPRLPVVLLTVLLPPGLMLLRTLLADHVPEGAARAFLDGIGNPIVSLAIAVLFAIWALGVRSGRSLGEIQKLLGKSLAPAAGVILIVGAGGGLKEMLLGTHIGDMIASGAAQWAISPLVLAWVIAALMRIAVGSATVATVTAAGLMAPVQALHPEISPELMTISVATGGLMLSHLNDSGFWLFKEYFQLTVAQTLKSWTLMVSVQSALGLAGVLLIDAVIR”, for which the protein production entry is reported as “failed”. In the case of “MQRKGDTPATLDLFADQTPQPRRDEQIGPGSWLFSGFALPAMPTLLLALEQTLGHSPFRHMLTPGGLSMSAALSSCGPLGWITDRHGYRYSDVDPQTGQPWPAMPDAFMQLAQSAALAAGYRGFVPDACLINRYIPGAKMSLHQDKDEHDHRWPVVSVSLGIPAIFQFGGMQRSDKTRRISLFHGDVVVWGGEDRLRFHGILPIKQAEHPLLGEQRINLTFRKAGRDSLEHHHHHH” it was “not failed”; in that of “MPIRVYTKVELALLYAPHLSENAALNNLSRWMRHNKLLMAALEEVGYYKYRHSFTPKEVRLIFRYMGEPGALEHHHHHH”, “not failed”; in that of “MEALVVVHKVASEGGRRPKTTVSDESGSHSREKGKSFQVKDSPENNYATGKVDSLERSHFSSSYNQERRQSEEQRR”, “failed”. With “MTEMHRLLQRQLKKFGFTADGLPQNLESWTQFIAHINKTYYENDQDRYLLERSIDISSKEMRDINAKLEYAQDIAQIGYWHYDADTDTATWSKGLFKILGLPPSNVALNYSSFLDLVHPNDKAGLKNVVEKALKEKEDYDYELRVRNGDNDYKWYRTIARANPHKNEISGVLMDISKRKIIEEQVHELNNKLVSTARLAGMSEVATSILHNVGNILNSVNVSAIILKKNISKIHYKKLSAIKTMLDENINQLSEYLLQNPKGKLILPYLDALSKTLHEEYEENMKESNSLETNINHIKEIIAMQQSLSGLSNLTEKISIHDVILNAVKSVILDKHQIDVRIEIEPDINEFITDKSKLFQILTNLLANAKDSVLLHEANDSRKVVISIGRTEKNHIMIKINDNGIGIQKDNLDRIFSFGFTTKKNGHGFGLHCSAIYARDLGGTLYAESNGNGKGAQFVLDLPINPKTLSTR” the entry was “failed”; with “MKVALGGTFEPLHEGHKKLIDVAIKLGGRDITIGVTSDRMARARIRSVLPFAIRAENVKRYVMRKYGFEPEIVKITNPYGKTLDVDFEYLVVSPETYEMALKINQKREELGKRKITIVKVDWMMAEDGKPISSTRIKRGEIDRYGG”, “failed”. With “ATTMEQETCAHSLTFEECPKCSALQYRNGFYLLKYDEEWYPEELLTDGEDDVFDPELDMEVVFELQGNSTSSDKNNSSSEGNEGVIINNFYSNQYQNSIDLSANAAGSDPPRTYGQFSNLLSGAVNAFSNMLPLLADQNTEEMENLSDRVSQDTAGNTVTNTQSTVGRLVGYGTVHDGEHPASCADTASEKILAVERYYTFKVNDWTSTQKPFEYIRIPLPHVLSGEDGGVFGAALRRHYLVKTGWRVQVQCNASQFHAGSLLVFMAPEYPTLDAFAMDNRWSKDNLPNGTRTQTNKKGPFAMDHQNFWQWTLYPHQFLNLRTNTTVDLEVPYVNIAPTSSWTQHASWTLVIAVVAPLTYSTGASTSLDITASIQPVRPVFNGLRHETLSRQ” the entry was “not failed”. Turning to “MSEGSNVLVSIILVNYNGADILPDCLNSIDKFISKDNCEILLVDNASQDNSYELVAQDFPDVKIVRLPKNYGFGAGNNAGAKIAKGKFLLLLNTDTILTTNILPHLIDLMRENPDVGIIGTKLVFPDETFQISFAYTIGIKGEYKSRKLHEYAEDKSKLNSLEQEFNTIKEVDIVVGAALFIRADLFHSVGGFDEKFFIYFEDADLCRRVQNQGYKILYTPQVSLIHIRGHSMKKNANATVVEYRRSQLYYYKKHCPVWERIILRIYLFAKFLPEFLATRNPYSLEIIKLLFVIA”, the protein production result is “failed”.

As for “MQVPKVTLNNGVEMPILGYGVFQIPPEKTEECVYEAIKVGYRLIDTAASYMNEEGVGRAIKRAIDEGIVRREELFVTTKLWVSDVGYESTKKAFEKSLKKLQLEYIDLYLIHQPFGDVHCAWKAMEEMYKDGLVRAIGVSNFYPDRLMDLMVHHEIVPAVNQIEIHPFYQRQEEIEFMRNYNIQPEAWGPFAEGRKNIFQNGVLRSIAEKYGKTVAQVILRWLTQKGIVAIPKTVRRERMKENISIFDFELTQEDMEKIATLDEGQSAFFSHRDPEVVKWICSLKR”, the protein production result is reported as “not failed”. In the case of “TLLLCFIVAGLTGLGDNFTTISWFTFLDFRVQGDYLYFSPLAQSLDEGQWWRLVSPMLLHFGVLHLAMNSLWYWELGKRIELRQGPWALLGLTLLFSLVSNLAQHYTSGPSLFGGLSGVLYGLLGHIWLYQWLAPDRYFNLPKGVLVMMLIWLVVCLTGVVGTLGLGQIANAAHVGGLLIGCLTGLLGGALARRKLSA” it was “failed”; in that of “MKAVKSERERGSRRRHRDGDVVLPAGVVVKQERLSPEVAPPAHRRPDHSGGSPSPPTSEPARSGHRGNRARGVSRSPPKKKNKASGRRSKSPRSKRNRSPHHSTVKVKQEREDHPRRGREDRQHREPSEQEHRRARNSDRDRHRGHSHQRRTSNERPGSGQGQGRDRDTQNLQAQEEEREFYNARRREHRQRNDVGGGGSESQELVPRPGGNNKEKEVPAKEKPSFELSGALLEDTNTFRGVVIKYSEPPEARIPKKRWRLYPFKNDEVLPVMYIHRQSAYLLGRHRRIADIPIDHPSCSKQHAVFQYRLVEYTRADGTVGRRVKPYIIDLGSGNGTFLNNKRIEPQRYYELKEKDVLKFGFSSREYVLLHESSDTSEIDRKDDEDEEEEEEVSDS”, “failed”. With “MALSSAPILITGASQRVGLHCALRLLEHGHQVIISYRTEHASVAQLRQAGAHTLHGDFSSEASIMAFIEQLKSHTSSLRAIVHNASEWLAETPGDEAENFTRMFSVHMLAPYLINLHCEALLHASDVADIVHISDDVTRKGSSKHIAYCATKAGLESLTLSFAARFAPLVKVNGIAPALLMFQPKDDAAYRANALAKSAMGIEPGAEVIYQSLRYLLDSTYVTGTTLTVNGGRHVK” the entry was “failed”. In the case of “MFCTFFEKHHRKWDILLEKSTGVMEAMKVTSEEKEQLSTAIDRMNEGLDAFIQLYNESEIDEPLIQLDDDTAELMKQARDMYGQEKLNEKLNTIIKQILSISVSEEGEKELKSNRIFISWLRWPLFIRIGVIILCLILLFGQIIYILEPKQFTSVFEGIWWAVVTVSTVGYGDYVPHTPLGQAAGILLILSGASFVTAYFATLSAAAFSRQHRYIEGKVAYKGRDHIILIGWNEKTNRLLKDLQLGAPSKTVVLIDESLTEGPLIENVHFIRGHAADDGTLKRANITEAESVMITADQYKSETDADMLSVLTLLSVKGLNPLAYCIVEILTDRFVTNAERAGANQIIGTSEFISRAMLQHYQVKLRRLNSRTESS” it was “failed”. Turning to “MIQRTKAKVMGAPTPMAGLALGIASLGWSWENFAELHGYGQWISAGIASVLLVILATKFLLHNHLLREDLAHPVVGSVVPTFAMGTMVVSNSLGHFYPLAGDVLWLIAVVLHIVFLVSFVYHRAKDFELHHMVPSWFVPPVGIIVADVSFSGNPMLAPVAQGALTFGMVAYAIMLPMMIYRFMFTHEIPDAAKPTMAIMAAPASLSLAGYLTVTATPSPVIIAMLFGIAVLMTAIIYLAFFKLLRLPFSPGYAAFTFPMVIGATALFKMANWMELQGLAAHYVQQVRGLAGLELIVATFVVSYVALQYINNLLIQPRLMHAHHA”, the protein production entry is reported as “not failed”. For “MISRNLKIYFRDRTAVFMSLLTVLIIIGLYAIFLGNNMEEMFKQASGKTVGIQELVNTWVIAGILSITPVTVSLAVFSLKVHDEELSIARSFAITSASRWRIVISYIVSGLVASFLLSVITLFVGEMYIWLTGGEFLPFESWIRLIGIILINVLCCSSIMFFIASLVKKASAFSSVSTIVGTVIGFIAGIYLPIGSLPAAVQTAMKCFPFTYGASTIREIMTKEPLKEVFAGNTGAMDATKEMIGITIYWGDKTVTTGLSLLILSAFAVVFGVLSVILMKRQTK”, the protein production entry is listed as “failed”.

As for “MGVSEISRSEEKSGIGFVKLFENNVVFPGFLVWMNQTIQEPLKAEFKRLRNVKELSLKSVSKIETAYEEHRDEEKLEKQLQAWRDNPSWIDQPPKVVVKSQNGLFCHLNIEADVGLPPELVYNIFTHPDNKRYFKNIKENISRKVLIDEGPKQTVEVKQAAAWKFLWWDGTCPIHLIVEENRKNLTSKYKQETTMFMKVFEGCWKVEPLFIDEHLCDRSKPKSQKDYHSCSNGRGRIGSKVTMDQMFQPSALLTPPPLSWYIRGITIKTTESMIEDLFAEATRLRGGKGGGYIDDQGENNVVTEKSKADDIKERWRSHRRSKRRRFTTARSM”, the protein production entry is listed as “failed”. With “MREGRLGYNSYNKRYGLLSSDLWIDTGFHCGEYLEVLLDDEWVQTRMEMNPAREWYLVGTPYCGDLEYIRARIPE” the entry was “failed”.

Consider “MTILDRLTGLAFPAAVLRRAIKLADSGKAAEAFPLMAKAARAGIVDAEYRVARCYLEGAGVPPSRMEGARWLLRAADHGSADAQALLAALYVTGLVTSEADGKGPSEHLFKPDSAGKPDFTAAFDFATKAAEAGSATGQAILGYILTSGPASMRDADAAHRWYEKSASAGCAEGCLGFALSLARRGKRENRVRIAEEVRRAADAGLPTATYLLAVLTEHGLGVARDMAAAAQLYQAAAEKGLPSAQFRLGLALIDGALVGQDVAAGEAWMRRAALAGNIEAAYLLGDRHAKTQRPDFAEAANWYRRAAEAGHQAAARALASLYLTGNGVAEDVEEGARWLRSSASAGNQQAQTDLANLILGGAGEPDDGASVAGWFEAAASSGDLIAAFNLGLCFAKGVGVRQDEGQAAHWLRRAAEGVAEAQYMYARLLQDGRGVAADPTQARVWFARAADAGVLDARVALAEMLLNGRGGMPEPEAAMQLFEQAAADGHAGAMFAIGALYGAGHGLPLDQTTAQKWYAAAAGRGHSQAQFMLGRYLLKGLAGERDPVAARLWLERAAAHGISEAADELGAAGGSD”, for which the protein production result is recorded as “failed”. With “MKRWIAIILIALMPAAQAGKAAKVTLVVDDVPVVQVLQALAEQERQNLVVSPDVSGTLSLHLTDVPWKQALQTVVNSAGLVLRQEGNILHVHSQAWQKEHSARQDAERLRLQANLPLENRSISLQYVDTGELAKAGEKLLSAKGTIMVDKRTNRLLLRDNRAALAELEKWVSQMDLPVAQVELAAHIVTINEKSLRELGVKWTLADATQAGAVGDVTTLSSDLSVAAATSRVGFNIGRINGRLLDLELSALEQKQQLDIIASPRLLASHLQPASIKQGSEIPYQVSSGESGATSVEFKEAVLGMEVTPTVLQKGRIRLKLHISQNVPGQVLQQADGEVLAIDKQEIETQVEVKSGETLALGGIFSRKNKSGSDSVPLLGDIPWLGQLFRHDGKEDERRELVVFITPRLVATE” the entry was “failed”.
